This experiment addresses T1, GI.1 norovirus (Norwalk virus) virus-like particles (Norwalk virus (norovirus GI.1), UniProt Q83884 1-530).
T1 construct: major capsid protein VP1 (ORF2) of Norwalk virus, genotype GI.1, assembled into virus-like particles; also called GI.1 VLPs; GI.1 VLP; copies: 180
T1 sequence: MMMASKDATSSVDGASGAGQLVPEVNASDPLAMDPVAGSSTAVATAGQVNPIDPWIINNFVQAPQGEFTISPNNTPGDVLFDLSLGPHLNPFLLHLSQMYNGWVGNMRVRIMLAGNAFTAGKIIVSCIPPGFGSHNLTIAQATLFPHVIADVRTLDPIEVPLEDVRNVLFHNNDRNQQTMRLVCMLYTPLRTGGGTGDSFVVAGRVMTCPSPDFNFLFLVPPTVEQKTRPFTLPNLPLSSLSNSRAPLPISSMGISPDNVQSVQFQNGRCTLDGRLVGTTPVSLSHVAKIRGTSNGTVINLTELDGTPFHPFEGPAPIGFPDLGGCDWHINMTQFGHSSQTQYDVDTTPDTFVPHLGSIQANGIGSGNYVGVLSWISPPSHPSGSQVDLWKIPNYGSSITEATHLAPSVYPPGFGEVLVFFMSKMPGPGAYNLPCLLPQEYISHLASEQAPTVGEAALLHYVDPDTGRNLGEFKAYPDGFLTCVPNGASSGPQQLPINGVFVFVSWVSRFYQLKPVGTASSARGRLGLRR
Description: ELISA; phage ELISA: VLPs, P-domain, S-domain (CT303) or BSA coated directly on the plate (VLPs 5 ug/mL in PBS); 5 × 10^10 cfu phage per well in 1% MPBS, 2 h RT; detected with anti-M13 HRP; signal as ratio to M13KE phage. The conditions noted are these: both partners purified. On the technique in general: ELISA stands for enzyme-linked immunosorbent assay.

B1: NV-N-R5-1 phage-displayed 12-mer peptide (peptide)
peptide: LPSWYLAYQKII
notes: source: first reported by Rogers et al [18]
B1: the binding result is on record as “binds”.

(Values after publication PMC5240998, “Identification and Characterization of Single-Chain Antibodies that Specifically Bind GI Noroviruses” (PLoS ONE, 2017).)
